Measured values published in PMC10343505 (Molecules, 2023).
Where a SMILES comes first, the peptide text is derived from it. The star is where a group is joined. Galloyl = O=C(c1cc(O)c(O)c(O)c1)*

Assays:
[1] = tested on: Vero cells; assay: Cytotoxicity profile, WST-1 viability assay; type: cell-based, African green monkey; details: 72 h; for CC50 (50% cytotoxic concentration in VERO cells): WST-1, non-linear regression of dose-response curve; for maximum non-toxic concentration: arbitrary threshold of 80% cell viability, range 80-0.62 µM
Protocol: To understand the effect of GA-Hecate and N-terminal-GA-metabolites on host cells, we tested them at a range of concentrations (80–0.62 µM) on Vero cells. Considering the arbitrary threshold of 80% cell viability, GA-Hecate, and GA-metabolite 5 reached their maximum non-toxic concentration at 40 µM (Figure 2).
Figure 2 Compound effects on Vero cells. Vero cells were incubated with different concentrations of GA-peptides. At 72 h post treatment, cell viability was determined by WST viability assay and the values are plotted as those relative to the control. Bars represent triplicate samples of three independent assays. *** p < 0.001. Comparison control vs. concentration. Water, the GA-peptide vehicle, was used as a negative control. Red dotted lines represent the arbitrary threshold of 80% cell viability.
The cytotoxicity profile of GA-Hecate and GA-metabolites. Peptide cytotoxicity profiles were measured using the WST-1 (4-[3-(4-iodophenyl)-2-(4-nitrophenyl)-2H-5-tetrazolio]-3-benzene disulfonate) cell proliferation reagent. A total of 24 h before treatment, 7 × 10^3 Vero cells/well were cultured with supplemented DMEM in a 96-multi-well plate and incubated at 37 °C in a humidified 5% CO2 incubator. The next day, the peptide-containing medium was added at the following final concentrations: 80; 40; 20; 10; 5; 2.5; 1.25, and 0.625 µM. After 72 h of incubation, peptide medium was removed, and WST-1 at a dilution of 1:10 was added to the wells and incubated for 30 min. Absorbance was measured at 450 nm, using a plate reader spectrophotometer.

[2] = Water solubility of synthesized compounds; type: physicochemical; details: concentration of 1 mg/mL in pure water
Protocol: The Hecate N-terminal fragments found in the serum stability experiment were selected to conjugate with gallic acid, like that in the GA-Hecate structure, where GA is coupled at the N-terminal region. Bioconjugates were synthesized using solid-phase methods and, after purification, their purity and identities were determined by high-performance liquid chromatography and mass spectrometry, respectively (see Supplementary Information). GA-metabolite 6 was not water-soluble and therefore was not considered for further biological evaluation.

[3] = Serum stability, mass spectrometry; type: in vitro ADME; details: 100 µL of 1 mg/mL peptide + 100 µL fresh human serum, 37 °C, 20 min, ethanol precipitation, ESI mass spectrometry
Protocol: The GA-Hecate peptide has shown promising efficacy in antiviral assays, but its stability and target selectivity are yet to be determined. An understanding of these properties is crucial for the future progression of the peptide for therapeutic end use. To evaluate its stability, the Hecate peptide was incubated in freshly prepared human blood serum at 37 °C for 20 min. Mass spectrometry was then employed to identify breakdown products (metabolites) (Supplementary Figure S1).
Serum stability. A total of 100 µL of a solution containing 1 mg/mL of Hecate peptide was incubated at 37 °C with 100 µL of fresh human serum for 20 min. Then, 200 µL of 96% ethanol solution in water was added to the mixture, which was centrifuged, and the supernatant was analysed by mass spectrometry as described below. Water was used as a negative control for samples without serum (Supplementary Figure S1).
Mass spectrometry. Compound solutions were analysed by mass spectrometry using a Bruker spectrometer in electrospray positive mode with direct injection. Spectra were analysed with the help of Spectra Analysis Software using the relationship between molecular weight (m) and charge (z) (m/z). Fragments of Hecate were identified, and the amino acid sequence was determined by m/z comparison.

[4] = tested on: ZIKV strain MP1751; assay: Virucidal assay, micro-neutralization; type: cell-based, Zika virus; details: virus pre-incubated 1 h, 72 hpi, Vero
Protocol: We next tested the virucidal effect of GA-Hecate and GA-metabolite 5 at concentrations of 20 µM and 40 µM on ZIKV strain MP1751 as described above. Again, we found a modest effect of GA-Hecate at 40 µM on ZIKV strain MP1751 replication. […] Given the latter result, the combination was not tested.
Sandwich ELISA to assess ZIKV infectivity (micro-neutralization). This assay was performed as described previously by Lopez-Chamaco et al., 2018. Briefly, at 72 h post-treatment (h.p.i.) the infected cell medium was removed, and cells were washed with PBS and then lysed with lysis buffer (20 mM Tris-HCl (pH 7.4), 20 mM iodoacetamide, 150 mM NaCl, 1 mM EDTA, and 0.5% Triton X-100) containing protease inhibitors. The lysis solution was transferred to an Immunolon® plate pre-coated with 3 µg/mL of purified pan-flavivirus MAb D1-4G2-4-15 (ATCC® HB112TM, herein referred to as 4G2) in PBS and incubated at room temperature for 1 h. […] After washing with PBST, 100 µL of TMB solution (Life Technologies) was added and the reaction stopped at 30 min with 50 µL of 0.5 M H2SO4 solution added and read at 450 nm using a plate reader spectrophotometer (ELISA).
Entry step assessment of GA-Hecate and GA-metabolites on Zika Virus. […] The levels of virus replication were determined using micro-neutralization as described above. […]

[5] = tested on: Vero cells; assay: Cell toxicity during constant treatment (cell count, WST-1); type: cell-based, African green monkey; details: 20 µM for 3 and 7 days
Protocol: We next assessed the effect, if any, of our peptides on cell growth, which in turn could affect virus replication. Vero cells in culture flasks were propagated in the presence or absence of 20 µM each of GA-peptides for 3 and 7 days. At this time point, viable cells were counted following incubation with trypsin using the automated cell counter Scepter^TM (Millipore), and cell shape was monitored using phase-contrast microscopy. Then, 7 × 10^3 cells were seeded per well of a 96-well plate, incubated for 24 h, and cell viability was measured using the WST-1 viability reagent (Figure 9c,d). […] This was consistent with the lower cell viability found for GA-Hecate-treated cells (65% of the control, Figure 9c).
Figure 9 Effect of peptides on Vero. (a) Cells were treated with 20 µM each of the peptides and cell counts determined at 3 and 7 days (a) during or (b) after treatment, as described in the text. (c,d) depict the cell viability counts from (a,b), respectively, shown as plots. Bars represent triplicate samples of three independent assays. *** p < 0.001. […]
GA-Hecate and GA-metabolite cell toxicity during constant treatment. […] Absorbance was measured at 450 nm, using a plate reader spectrophotometer. […] Cell images were obtained using a confocal microscope and the number of cells/mL was automatically measured using the automated cell counter Scepter^TM (Millipore). […]

[6] = fresh human serum; details: 37 °C, up to 20 min

Compound | CC50 (50% cytotoxic concentration in VERO cells) [1] | Water Solubility [2] | maximum non-toxic concentration ([1]; Vero cells, WST) | other results
CC(C)C[C@H](NC(=O)[C@H](C)NC(=O)[C@H](CCCCN)NC(=O)[C@H](CCCCN)NC(=O)[C@H](CC(C)C)NC(=O)[C@H](C)NC(=O)[C@H](CCCCN)NC(=O)[C@H](CC(C)C)NC(=O)[C@H](C)NC(=O)[C@H](CC(C)C)NC(=O)[C@H](C)NC(=O)[C@H](Cc1ccccc1)NC(=O)c1cc(O)c(O)c(O)c1)C(=O)O [GA-Metabolite 7] (Galloyl-FALALKALKKAL-OH) | >80.0 µM | Soluble | – | cytotoxic effect ([1]; Vero cells, WST, all tested concentrations 80-0.62 µM): did not show any cytotoxic effect
CC(C)C[C@H](NC(=O)[C@H](C)NC(=O)[C@H](CCCCN)NC(=O)[C@H](CCCCN)NC(=O)[C@H](CC(C)C)NC(=O)[C@H](C)NC(=O)[C@H](CCCCN)NC(=O)[C@H](CCCCN)NC(=O)[C@H](CC(C)C)NC(=O)[C@H](CCCCN)NC(=O)[C@H](CCCCN)NC(=O)[C@H](CC(C)C)NC(=O)[C@H](C)NC(=O)[C@H](CCCCN)NC(=O)[C@H](CCCCN)NC(=O)[C@H](CC(C)C)NC(=O)[C@H](C)NC(=O)[C@H](CCCCN)NC(=O)[C@H](CC(C)C)NC(=O)[C@H](C)NC(=O)[C@H](CC(C)C)NC(=O)[C@H](C)NC(=O)[C@H](Cc1ccccc1)NC(=O)c1cc(O)c(O)c(O)c1)C(N)=O [GA-Hecate] (Galloyl-FALALKALKKALKKLKKALKKAL-NH2) | >70.0 µM | Soluble | 40 µM | –
CC(C)C[C@H](NC(=O)[C@H](C)NC(=O)[C@H](CCCCN)NC(=O)[C@H](CC(C)C)NC(=O)[C@H](C)NC(=O)[C@H](CC(C)C)NC(=O)[C@H](C)NC(=O)[C@H](Cc1ccccc1)NC(=O)c1cc(O)c(O)c(O)c1)C(=O)O [GA-Metabolite 6] (Galloyl-FALALKAL-OH) | – | Not soluble | – | –
CC(C)C[C@H](NC(=O)[C@H](C)NC(=O)[C@H](CCCCN)NC(=O)[C@H](CCCCN)NC(=O)[C@H](CC(C)C)NC(=O)[C@H](C)NC(=O)[C@H](CCCCN)NC(=O)[C@H](CCCCN)NC(=O)[C@H](CC(C)C)NC(=O)[C@H](CCCCN)NC(=O)[C@H](CCCCN)NC(=O)[C@H](CC(C)C)NC(=O)[C@H](C)NC(=O)[C@H](CCCCN)NC(=O)[C@H](CCCCN)NC(=O)[C@H](CC(C)C)NC(=O)[C@H](C)NC(=O)[C@H](CCCCN)NC(=O)[C@H](CC(C)C)NC(=O)[C@H](C)NC(=O)[C@H](CC(C)C)NC(=O)[C@H](C)NC(=O)[C@@H](N)Cc1ccccc1)C(N)=O [Hecate] (H-FALALKALKKALKKLKKALKKAL-NH2) | – | – | – | stability in human blood serum [3]: degraded in human blood serum into three major metabolites
CC(C)C[C@H](NC(=O)[C@H](CCCCN)NC(=O)[C@H](CCCCN)NC(=O)[C@H](CC(C)C)NC(=O)[C@H](C)NC(=O)[C@H](CCCCN)NC(=O)[C@H](CCCCN)NC(=O)[C@H](CC(C)C)NC(=O)[C@H](C)NC(=O)[C@H](CCCCN)NC(=O)[C@H](CC(C)C)NC(=O)[C@H](C)NC(=O)[C@H](CC(C)C)NC(=O)[C@H](C)NC(=O)[C@H](Cc1ccccc1)NC(=O)c1cc(O)c(O)c(O)c1)C(=O)O [GA-Metabolite 5] (Galloyl-FALALKALKKALKKL-OH) | >70.0 µM | Soluble | 40 µM | virucidal inhibition ([4]; 20 µM): 98.5%; virucidal inhibition ([4]; 40 µM): 98.5%; cell viability [5]: did not have any effect on cell viability or cell shape
H3^+N-FALALKALKKALKKLKKALKKAL-CONH2 | – | – | – | cleaved bond [6]: L-K, major, 20 min
